Measured values taken from IntAct's records for PubMed 25910212.

B1: EF-hand domain-containing protein 1 (Homo sapiens), Q5JVL4 (parent)
chain: MVSNPVHGLPFLPGTSFKDSTKTAFHRSQTLSYRNGYAIVRRPTVGIGGDRLQFNQLSQAELDELASKAPVLTYGQPKQAPPADFIPAHVAFDKKVLKFDAYFQEDVPMSTEEQYRIRQVNIYYYLEDDSMSVIEPVVENSGILQGKLIKRQRLAKNDRGDHYHWKDLNRGINITIYGKTFRVVDCDQFTQVFLESQGIELNPPEKMALDPYTELRKQPLRKYVTPSDFDQLKQFLTFDKQVLRFYAIWDDTDSMYGECRTYIIHYYLMDDTVEIREVHERNDGRDPFPLLMNRQRVPKVLVENAKNFPQCVLEISDQEVLEWYTAKDFIVGKSLTILGRTFFIYDCDPFTRRYYKEKFGITDLPRIDVSKREPPPVKQELPPYNGFGLVEDSAQNCFALIPKAPKKDVIKMLVNDNKVLRYLAVLESPIPEDKDRRFVFSYFLATDMISIFEPPVRNSGIIGGKYLGRTKVVKPYSTVDNPVYYGPSDFFIGAVIEVFGHRFIILDTDEYVLKYMESNAAQYSPEALASIQNHVRKREAPAPEAESKQTEKDPGVQELEALIDTIQKQLKDHSCKDNIREAFQIYDKEASGYVDRDMFFKICESLNVPVDDSLVKELIRMCSHGEGKINYYNFVRAFSN

Variants of: B1
Settings: with ikzf3_human IKZF3, Q9UKT9
ikzf3_human IKZF3, Q9UKT9, sequence (Q9UKT9 whole entry): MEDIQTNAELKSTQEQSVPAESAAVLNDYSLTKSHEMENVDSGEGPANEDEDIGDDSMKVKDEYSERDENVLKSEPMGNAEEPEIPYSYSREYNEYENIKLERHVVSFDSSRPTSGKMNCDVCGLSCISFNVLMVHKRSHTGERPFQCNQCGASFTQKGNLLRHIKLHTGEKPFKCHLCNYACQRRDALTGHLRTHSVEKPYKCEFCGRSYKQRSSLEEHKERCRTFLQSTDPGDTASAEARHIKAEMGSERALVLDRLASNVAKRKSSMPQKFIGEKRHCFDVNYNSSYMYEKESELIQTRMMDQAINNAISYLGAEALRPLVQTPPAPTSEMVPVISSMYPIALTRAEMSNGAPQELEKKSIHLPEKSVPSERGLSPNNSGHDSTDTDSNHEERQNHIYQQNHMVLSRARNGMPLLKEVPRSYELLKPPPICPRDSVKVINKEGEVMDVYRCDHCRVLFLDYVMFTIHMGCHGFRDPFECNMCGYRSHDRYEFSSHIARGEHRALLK

| effect of a mutation on the interaction | Variant |
| --- | --- |
| disrupting interaction strength | A394S |
| disrupting interaction strength | R221H |

Variants of: B1
Settings: with kctd4_human KCTD4, Q8WVF5
kctd4_human KCTD4, Q8WVF5, sequence (Q8WVF5 whole entry): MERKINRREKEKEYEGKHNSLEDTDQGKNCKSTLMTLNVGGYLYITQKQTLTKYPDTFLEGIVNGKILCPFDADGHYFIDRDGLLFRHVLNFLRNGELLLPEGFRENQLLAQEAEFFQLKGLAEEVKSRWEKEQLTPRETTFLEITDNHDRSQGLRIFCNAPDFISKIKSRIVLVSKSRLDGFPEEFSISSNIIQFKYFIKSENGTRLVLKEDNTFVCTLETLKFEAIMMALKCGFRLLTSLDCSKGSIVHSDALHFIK

| effect of a mutation on the interaction | Variant |
| --- | --- |
| disrupting interaction strength | A394S |
| disrupting interaction strength | R221H |

Variants of: B1
Settings: with rim3a_human RIMBP3, Q9UFD9
rim3a_human RIMBP3, Q9UFD9, sequence (Q9UFD9 whole entry): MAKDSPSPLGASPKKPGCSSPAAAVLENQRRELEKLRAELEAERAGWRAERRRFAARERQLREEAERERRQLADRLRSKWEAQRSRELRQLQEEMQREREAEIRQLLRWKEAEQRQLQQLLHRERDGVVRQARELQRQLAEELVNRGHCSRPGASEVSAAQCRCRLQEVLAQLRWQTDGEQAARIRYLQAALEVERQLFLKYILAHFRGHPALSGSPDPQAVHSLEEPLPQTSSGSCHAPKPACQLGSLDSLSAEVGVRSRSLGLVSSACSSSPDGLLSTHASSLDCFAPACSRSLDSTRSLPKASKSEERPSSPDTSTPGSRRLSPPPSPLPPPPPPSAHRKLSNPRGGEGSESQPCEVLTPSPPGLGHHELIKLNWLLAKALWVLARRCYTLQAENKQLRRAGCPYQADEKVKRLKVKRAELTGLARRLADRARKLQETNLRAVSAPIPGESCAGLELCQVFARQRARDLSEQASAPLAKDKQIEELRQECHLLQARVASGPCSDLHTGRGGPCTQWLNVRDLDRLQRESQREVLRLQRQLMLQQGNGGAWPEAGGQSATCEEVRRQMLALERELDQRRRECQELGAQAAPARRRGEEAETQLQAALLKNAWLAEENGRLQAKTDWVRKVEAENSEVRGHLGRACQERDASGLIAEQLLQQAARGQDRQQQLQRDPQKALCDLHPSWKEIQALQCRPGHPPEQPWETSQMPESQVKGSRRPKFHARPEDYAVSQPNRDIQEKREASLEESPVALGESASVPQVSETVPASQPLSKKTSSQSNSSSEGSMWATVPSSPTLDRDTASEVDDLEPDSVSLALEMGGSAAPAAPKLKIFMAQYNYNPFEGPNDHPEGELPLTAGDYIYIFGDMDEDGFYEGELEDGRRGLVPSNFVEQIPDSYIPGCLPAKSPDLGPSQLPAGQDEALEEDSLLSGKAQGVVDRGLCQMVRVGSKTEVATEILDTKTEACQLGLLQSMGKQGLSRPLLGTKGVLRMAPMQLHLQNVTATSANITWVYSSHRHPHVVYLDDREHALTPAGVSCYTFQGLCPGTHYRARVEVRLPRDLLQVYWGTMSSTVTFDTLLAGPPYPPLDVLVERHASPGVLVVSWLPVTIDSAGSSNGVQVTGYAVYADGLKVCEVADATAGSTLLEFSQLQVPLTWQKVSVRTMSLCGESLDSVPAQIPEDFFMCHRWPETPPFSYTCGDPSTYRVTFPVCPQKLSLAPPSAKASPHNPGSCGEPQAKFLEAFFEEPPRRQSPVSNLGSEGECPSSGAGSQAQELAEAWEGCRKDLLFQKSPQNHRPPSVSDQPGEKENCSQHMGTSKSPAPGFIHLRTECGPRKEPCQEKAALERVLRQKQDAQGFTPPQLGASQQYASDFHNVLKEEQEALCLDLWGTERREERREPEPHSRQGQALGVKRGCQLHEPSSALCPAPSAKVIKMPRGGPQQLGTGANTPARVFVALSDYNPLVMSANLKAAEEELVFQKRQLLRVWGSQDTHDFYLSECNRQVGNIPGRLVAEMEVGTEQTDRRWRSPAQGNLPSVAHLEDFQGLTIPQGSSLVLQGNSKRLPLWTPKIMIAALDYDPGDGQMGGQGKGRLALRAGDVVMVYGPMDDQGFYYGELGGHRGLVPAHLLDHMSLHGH

| effect of a mutation on the interaction | Variant |
| --- | --- |
| disrupting interaction strength | A394S |
| disrupting interaction strength | R221H |

Variants of: B1
Settings: with trip6_human TRIP6, Q15654
trip6_human TRIP6, Q15654, sequence (Q15654 whole entry): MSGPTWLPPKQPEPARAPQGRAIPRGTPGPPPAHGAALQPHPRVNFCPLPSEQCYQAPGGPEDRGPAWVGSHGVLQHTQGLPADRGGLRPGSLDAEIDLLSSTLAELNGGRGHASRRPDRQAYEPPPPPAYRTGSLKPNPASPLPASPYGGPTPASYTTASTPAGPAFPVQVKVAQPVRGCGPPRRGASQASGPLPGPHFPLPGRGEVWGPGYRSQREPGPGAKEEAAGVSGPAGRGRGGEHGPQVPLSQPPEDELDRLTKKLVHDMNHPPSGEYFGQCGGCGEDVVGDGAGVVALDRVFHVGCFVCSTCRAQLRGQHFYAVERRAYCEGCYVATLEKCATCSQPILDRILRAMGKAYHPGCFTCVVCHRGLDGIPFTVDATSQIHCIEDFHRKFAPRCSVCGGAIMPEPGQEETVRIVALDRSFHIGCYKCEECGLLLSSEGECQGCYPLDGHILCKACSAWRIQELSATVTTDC

| effect of a mutation on the interaction | Variant |
| --- | --- |
| disrupting interaction strength | A394S |
| disrupting interaction strength | R221H |

Variants of: B1
Settings: with KRT15, P19012
KRT15, P19012, sequence (P19012 whole entry): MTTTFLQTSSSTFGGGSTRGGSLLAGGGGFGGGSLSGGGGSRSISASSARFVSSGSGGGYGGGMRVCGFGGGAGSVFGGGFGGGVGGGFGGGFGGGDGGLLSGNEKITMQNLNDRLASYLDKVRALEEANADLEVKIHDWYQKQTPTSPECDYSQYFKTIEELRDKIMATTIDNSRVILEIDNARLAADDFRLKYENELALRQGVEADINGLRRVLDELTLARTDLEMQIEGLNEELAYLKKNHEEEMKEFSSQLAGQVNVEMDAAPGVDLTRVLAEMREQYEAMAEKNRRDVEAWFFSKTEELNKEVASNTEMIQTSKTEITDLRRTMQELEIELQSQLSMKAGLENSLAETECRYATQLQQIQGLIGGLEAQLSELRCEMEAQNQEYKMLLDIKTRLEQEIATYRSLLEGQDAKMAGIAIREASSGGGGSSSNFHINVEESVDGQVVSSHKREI

| effect of a mutation on the interaction | Variant |
| --- | --- |
| disrupting interaction strength | A394S |
| disrupting interaction strength | R221H |

Variants of: B1
Settings: with TCF4, P15884-3
TCF4, P15884-3, sequence (P15884 other isoform, or with tags, fused parts or gaps): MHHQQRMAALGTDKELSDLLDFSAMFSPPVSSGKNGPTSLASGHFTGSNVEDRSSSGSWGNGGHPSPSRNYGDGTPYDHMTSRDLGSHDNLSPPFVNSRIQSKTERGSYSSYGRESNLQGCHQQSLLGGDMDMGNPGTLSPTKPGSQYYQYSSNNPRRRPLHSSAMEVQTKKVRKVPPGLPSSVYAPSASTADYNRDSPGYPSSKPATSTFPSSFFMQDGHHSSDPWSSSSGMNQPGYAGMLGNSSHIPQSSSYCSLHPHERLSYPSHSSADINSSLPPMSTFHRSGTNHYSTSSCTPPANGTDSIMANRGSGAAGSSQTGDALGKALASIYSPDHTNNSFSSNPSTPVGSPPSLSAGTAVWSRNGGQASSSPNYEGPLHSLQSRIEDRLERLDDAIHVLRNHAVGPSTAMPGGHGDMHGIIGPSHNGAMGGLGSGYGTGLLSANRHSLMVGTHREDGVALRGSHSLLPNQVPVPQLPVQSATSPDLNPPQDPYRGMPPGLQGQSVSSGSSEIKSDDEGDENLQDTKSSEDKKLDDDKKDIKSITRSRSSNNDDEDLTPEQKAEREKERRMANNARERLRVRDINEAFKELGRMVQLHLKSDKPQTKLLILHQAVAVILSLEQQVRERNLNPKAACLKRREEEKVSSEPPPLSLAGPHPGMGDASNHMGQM

| effect of a mutation on the interaction | Variant |
| --- | --- |
| disrupting interaction strength | A394S |
| disrupting interaction strength | R221H |

Variants of: B1
Settings: with goga2_human GOLGA2, Q08379
goga2_human GOLGA2, Q08379, sequence (Q08379 whole entry): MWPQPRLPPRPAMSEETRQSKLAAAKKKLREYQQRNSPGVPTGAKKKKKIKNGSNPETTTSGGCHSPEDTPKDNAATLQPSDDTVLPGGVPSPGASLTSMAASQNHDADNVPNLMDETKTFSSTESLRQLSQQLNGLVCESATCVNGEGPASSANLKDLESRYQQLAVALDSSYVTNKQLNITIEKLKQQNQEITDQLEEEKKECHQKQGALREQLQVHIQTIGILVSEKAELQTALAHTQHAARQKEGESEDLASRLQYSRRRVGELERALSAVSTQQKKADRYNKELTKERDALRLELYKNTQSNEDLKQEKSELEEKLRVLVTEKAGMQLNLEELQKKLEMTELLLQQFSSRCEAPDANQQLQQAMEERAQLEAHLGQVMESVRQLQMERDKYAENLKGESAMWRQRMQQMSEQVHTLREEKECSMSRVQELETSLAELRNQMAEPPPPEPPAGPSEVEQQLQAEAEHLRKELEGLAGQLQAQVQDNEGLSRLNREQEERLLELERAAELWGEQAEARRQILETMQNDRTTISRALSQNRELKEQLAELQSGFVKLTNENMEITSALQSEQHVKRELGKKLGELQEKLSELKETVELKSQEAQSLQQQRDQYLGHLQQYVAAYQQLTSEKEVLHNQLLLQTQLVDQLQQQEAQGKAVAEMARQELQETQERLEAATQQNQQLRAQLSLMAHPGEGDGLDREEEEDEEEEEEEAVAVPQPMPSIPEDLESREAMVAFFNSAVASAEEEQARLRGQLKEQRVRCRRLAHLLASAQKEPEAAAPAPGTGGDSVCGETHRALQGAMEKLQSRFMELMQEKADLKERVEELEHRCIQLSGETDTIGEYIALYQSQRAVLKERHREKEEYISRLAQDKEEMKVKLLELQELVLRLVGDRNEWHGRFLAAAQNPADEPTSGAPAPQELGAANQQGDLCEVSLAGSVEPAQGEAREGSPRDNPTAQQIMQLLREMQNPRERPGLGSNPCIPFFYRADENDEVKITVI

| effect of a mutation on the interaction | Variant |
| --- | --- |
| disrupting interaction strength | A394S |
| disrupting interaction strength | R221H |
